Experimental data from patent US20230340152A1 (published 2023).

Legend:
HDX_E1+E2 CD73 chimera = target: T1, HDX_E1+E2 CD73 chimera (human; chicken, UniProt P21589 27-553); experiment: SPR (ProteOn), CD73 variant immobilized; 2:1 fit
T1 chain: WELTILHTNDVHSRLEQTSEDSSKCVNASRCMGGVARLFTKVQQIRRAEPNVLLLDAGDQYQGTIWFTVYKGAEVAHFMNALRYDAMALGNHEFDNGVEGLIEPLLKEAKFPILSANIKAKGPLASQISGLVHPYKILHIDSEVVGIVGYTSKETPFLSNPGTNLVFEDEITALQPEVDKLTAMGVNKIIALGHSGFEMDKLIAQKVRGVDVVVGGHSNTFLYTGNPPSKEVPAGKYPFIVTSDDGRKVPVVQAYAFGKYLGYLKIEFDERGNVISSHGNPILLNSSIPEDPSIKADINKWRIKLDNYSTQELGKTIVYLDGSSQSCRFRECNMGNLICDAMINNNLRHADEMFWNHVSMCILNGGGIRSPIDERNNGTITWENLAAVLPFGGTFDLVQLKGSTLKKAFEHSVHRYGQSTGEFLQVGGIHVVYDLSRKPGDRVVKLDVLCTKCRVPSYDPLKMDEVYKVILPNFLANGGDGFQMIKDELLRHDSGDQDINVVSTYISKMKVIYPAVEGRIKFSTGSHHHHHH
Protocol: (§1) Binding of MEDI9447 to wild-type and mutant CD73 proteins was measured by surface plasmon resonance (SPR) using a ProteOn instrument (BioRad). CD73 crude cell supernatant protein samples were diluted to 3 µg/ml in PBS, 0.005% Tween-20, pH 7.4 (BioRad) and immobilized to ~400 RU on a HTG tris-NTA sensor chip (BioRad) pre-activated with 10 mM NiSO₄, 10 mM MES, pH 6.0 (BioRad). An equivalently diluted crude cell supernatant sample from non-transfected cells was included as a reference channel control. Sensorgrams were recorded by flowing two-fold dilutions of MEDI9447 prepared in PBS, 0.005% Tween-20, pH 7.4, ranging from 5 nM to 0.31 nM. […] Antibody binding was measured at a flow rate of 100 µL/min with a 3 min association phase and 20 min dissociation phase. The sensor chip surface was regenerated between each run by an 800 s injection of 300 mM EDTA, pH 8.5 (BioRad) at a flow rate of 30 µL/min. Binding kinetics were analyzed using the ProteOn data analysis software. Double referencing was performed and, unless noted otherwise, a 1:1 Langmuir binding model was utilized to fit the data. Some CD73 variants containing mutations within the amino acid region 171-188 fit poorly to a 1:1 model (i.e., Chi² values >10% of Rmax). Where noted, these variants were fit with a heterogenous antigen (2:1) model. […] Due to the assay format (antigen immobilized) and the dimeric state of CD73, KD values may be exaggerated due to avidity effects. However, it is not anticipated that this impacts ranking of MEDI9447 binding to the different CD73 variants.

HDX_E2 CD73 chimera = target: T2, HDX_E2 CD73 chimera (human; chicken, UniProt P21589 27-553); experiment: SPR (ProteOn), CD73 variant immobilized; 2:1 fit
T2 construct: also called KO_182-187
T2 chain: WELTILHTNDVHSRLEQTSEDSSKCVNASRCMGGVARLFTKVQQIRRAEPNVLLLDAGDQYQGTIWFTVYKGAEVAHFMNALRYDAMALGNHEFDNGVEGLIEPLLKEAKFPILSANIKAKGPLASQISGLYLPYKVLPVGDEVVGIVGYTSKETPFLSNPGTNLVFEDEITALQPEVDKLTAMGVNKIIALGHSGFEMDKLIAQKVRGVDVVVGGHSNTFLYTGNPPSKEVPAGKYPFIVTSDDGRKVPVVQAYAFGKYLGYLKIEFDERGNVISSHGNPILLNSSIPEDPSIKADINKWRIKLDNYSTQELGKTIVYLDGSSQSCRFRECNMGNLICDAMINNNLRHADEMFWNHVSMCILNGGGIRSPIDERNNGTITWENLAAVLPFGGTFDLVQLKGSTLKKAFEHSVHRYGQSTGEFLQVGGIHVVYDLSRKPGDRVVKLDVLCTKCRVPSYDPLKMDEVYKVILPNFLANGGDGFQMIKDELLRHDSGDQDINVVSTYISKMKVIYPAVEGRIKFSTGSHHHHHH
Protocol: as §1

[1] = target: T3, Cynomolgus CD73 on MK-1 cells (cynomolgus, UniProt A0A2K5V5U7 27-549); experiment: flow cytometry, MK-1 cells
T3 construct: whole, on cells; also called MK-1 (cyno)
T3 sequence: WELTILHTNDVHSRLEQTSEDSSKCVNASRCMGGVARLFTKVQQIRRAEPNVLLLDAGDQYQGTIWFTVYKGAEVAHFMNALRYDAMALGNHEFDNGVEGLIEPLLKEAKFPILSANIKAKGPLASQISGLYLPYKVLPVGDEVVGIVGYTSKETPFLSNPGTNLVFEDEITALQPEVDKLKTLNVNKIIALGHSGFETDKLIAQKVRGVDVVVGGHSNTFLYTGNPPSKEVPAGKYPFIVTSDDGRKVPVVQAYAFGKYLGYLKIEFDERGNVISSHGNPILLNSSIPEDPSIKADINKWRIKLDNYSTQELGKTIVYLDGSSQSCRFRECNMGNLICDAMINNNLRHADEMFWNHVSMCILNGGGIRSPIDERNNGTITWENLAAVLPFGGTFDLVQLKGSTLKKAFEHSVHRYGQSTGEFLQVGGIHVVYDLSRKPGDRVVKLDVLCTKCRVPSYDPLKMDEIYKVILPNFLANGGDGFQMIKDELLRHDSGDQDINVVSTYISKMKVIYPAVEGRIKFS
Protocol: Binding of MEDI9447 to native CD73 expressed on human, murine, and cynomolgus monkey cell lines was characterized by flow cytometry. The cells were incubated with various concentrations of MEDI9447 and antibody binding was monitored with and fluorophore-labeled anti-human Fc antibody. A plot of the median fluorescence intensity as a function of the MEDI9447 concentration was fitted nonlinearly using a one-site binding isotherm model to calculate the equilibrium dissociation constant.

B1: MEDI9447 (antibody, human IgG1, lambda, V domains shown)
VH: EVQLLESGGGLVQPGGSLRLSCAASGFTFSSYAYSWVRQAPGKGLEWVSAISGSGGRTYYADSVKGRFTISRDNSKNTLYLQMNSLRAEDTAVYYCARLGYGRVDEWGRGTLVTVSS
VL: QSVLTQPPSASGTPGQRVTISCSGSLSNIGRNPVNWYQQLPGTAPKLLIYLDNLRLSGVPDRFSGSKSGTSASLAISGLQSEDEADYYCATWDDSHPGWTFGGGTKLTVLG
notes: Human IgG1-TM (L234F, L235E, P331S), lambda light chain; also called clone 10.3 antibody; 73combo3
B1 showed a Kd (HDX_E1+E2 CD73 chimera) of 4.43 nM, a koff (HDX_E1+E2 CD73 chimera) of 0.0211 s⁻¹ and a kon (HDX_E1+E2 CD73 chimera) of 4.76e+06 M⁻¹ s⁻¹. For the same binder, the Kd (HDX_E2 CD73 chimera) was 2.83 nM, the koff (HDX_E2 CD73 chimera) was 0.0162 s⁻¹ and the kon (HDX_E2 CD73 chimera) was 5.73e+06 M⁻¹ s⁻¹. It also gave a Kd [1] of 0.084 nM.
